Reference: article PMC12309418 (2025)

Tests used:
[1] = target: T1, PLS2 RD-ABD1 (a.a. 1–385) (human, UniProt P13796 1-385); assay: FP; pH 8.0
T1 chain: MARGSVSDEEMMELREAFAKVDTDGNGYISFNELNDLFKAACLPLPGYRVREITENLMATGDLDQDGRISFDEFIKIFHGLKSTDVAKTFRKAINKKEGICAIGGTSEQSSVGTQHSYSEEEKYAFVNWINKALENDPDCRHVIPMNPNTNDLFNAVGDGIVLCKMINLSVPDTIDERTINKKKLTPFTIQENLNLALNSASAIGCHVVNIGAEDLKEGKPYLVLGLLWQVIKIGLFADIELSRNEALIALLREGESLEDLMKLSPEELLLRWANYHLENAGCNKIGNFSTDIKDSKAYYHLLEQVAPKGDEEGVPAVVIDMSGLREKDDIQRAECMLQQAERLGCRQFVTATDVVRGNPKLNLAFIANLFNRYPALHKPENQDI

[2] = target: T1, PLS2 RD-ABD1 (a.a. 1–385); assay: FP; pH 7.0

Kd [1]: 8.7 nM
Kd [2]: 4.5 nM
B1: fluorescein-maleimide labeled PLS2 ABD2 (FM-ABD2) (domain or fragment)
chain: PENQDIDWGALEGETREERTFRNWMNSLGVNPRVNHLYSDLSDALVIFQLYEKIKVPVDWNRVNKPPYPKLGGNMKKLENCNYAVELGKNQAKFSLVGIGGQDLNEGNRTLTLALIWQLMRRYTLNILEEIGGGQKVNDDIIVNWVNETLREAKKSSSISSFKDPKISTSLPVLDLIDAIQPGSINYDLLKTENLNDDEKLNNAKYAISMARKIGARVYALPEDLVEVNPKMVMTVFACLMGKGM
modifications: fluorescein maleimide (FM) label; labeled residue not stated
